The values below come from paper doi:10.1101/2024.02.27.582368 (bioRxiv, 2024).

A word on the stoichiometry N: it is the number of molecules, sites or subunits per partner or assembly.

Data set [1] concerns the target BC1280 (CapP, CalY-assisting polymerization protein), full-length recombinant protein (Bacillus cereus ATCC14579) (UniProt Q81GC7). In words: native gel or EMSA.
The data set “native gel or EMSA” deals with the molecule itself. Put plainly: native gel or EMSA.

“BC1280 (CapP, CalY-assisting polymerization protein), full-length recombinant protein (from UniProt Q81GC7 1-279) (natural protein)”: in data set [1], the stoichiometry N amounted to 15 subunits.

B1: N-domain39-190 of BC1280 (domain or fragment, Bacillus cereus ATCC14579, UniProt Q81GC7 39-190, looked up)
chain: AAFIHETKVEATLSTAIIFPKTVNTLKEQSEKHKQFIEREYGTMKGKLKATSIEEIKQAISVWQQGREKIVAEKEALQNVYTEIEAPYNQIQEELKVNKDESMQQVSIYVNEGFRSIKEKRDYIEKEISLKAIDEQIQALQQQLNVAIEAEG
For B1, in “native gel or EMSA”, the “stoichiometry N” value was roughly 15 subunits.
